Experimental data as given in PMC6018088.

Assays:
[1] = target: T1, Fur (Vibrio cholerae O1 El Tor C7258?) (UniProt P0C6C8); experiment: DNase I footprinting; conditions: DNase I footprinting with FAM/HEX-labeled probes and RQ1 DNase I; buffer, salt, pH and temperature not given (cites earlier work)
T1 sequence: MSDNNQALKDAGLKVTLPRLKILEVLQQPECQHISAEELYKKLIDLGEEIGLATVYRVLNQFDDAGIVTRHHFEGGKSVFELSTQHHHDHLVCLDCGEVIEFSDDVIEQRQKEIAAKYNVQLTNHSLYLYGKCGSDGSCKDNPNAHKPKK

[2] = target: T2, HapR (Vibrio cholerae O1 El Tor C7258?) (UniProt Q4F6W7); experiment: DNase I footprinting; conditions: […]; buffer, pH and temperature not given ([…]
T2 sequence: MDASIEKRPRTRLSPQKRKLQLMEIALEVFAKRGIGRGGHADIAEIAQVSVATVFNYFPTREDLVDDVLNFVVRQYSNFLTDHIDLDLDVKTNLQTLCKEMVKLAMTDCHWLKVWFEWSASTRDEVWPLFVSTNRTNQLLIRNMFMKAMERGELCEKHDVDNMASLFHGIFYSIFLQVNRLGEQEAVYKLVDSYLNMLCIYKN

## GTAAAACGACGGCCAGTCTTATGTGTAAGCGTATTGAAATCTTTAGAGTTAAAATGGAGAACTTAACTTTTTTTAAATTATTCAATTAATCTTTAAATCAACCTTATAAATTAATTCAGACTAAATTAGTTCAAATTAAATTAGGCTCATTAAATAATATGAATATCAGTAATTGTTATTTTAGGAAGAAATTATTTTACAGCAAATAAAAAGTCTTTAGAGGCTAAAATCTGTGATCCGGTCATAGCTGTTTCCTG (double strand) [hlyA promoter fragment]
[1]
  binding: binds
[2]
  binding: binds
